From US20250346673A1 (DUALITY BIOLOGICS SUZHOU, published 2025)
Each block holds one binder with its values, some of them ahead of it.

Columns and labels:
[1] = target: T1, Human BDCA2 Fc recombinant protein (human); assay: ELISA, coated humanBDCA2 Fc
T1 construct: Human IgG1 Fc N-terminal of the BDCA2 extracellular domain (Asn45-Ile213), fused by a linker; also called BDCA2-Fc protein
Procedure: HumanBDCA2 Fc protein or cynoBDCA2 His protein was diluted with PBS to 1 μg/mL and added to ELISA microplates at 100 μL/well and incubated at 4° C. overnight. The plates were blocked with ELISA blocking solution (PBS phosphate buffer with 1% BSA, pH 7.4, the percentages representing mass percentages) at 37° C. for 2 hours. Sequential 10-fold serial dilutions of antibodies were added at 8 concentrations (0.0001 nM-100 nM, including 0 point control) in total at 100 μL/well. The plates were incubated at 37° C. for 1 hour, then washed 3 times and after anti-mouse IgG (Fab specific)-HRP (Sigma, A3682; 1: 5000 dilution) secondary antibodies were added at 100 μL/well, were incubated at 37° C. for 1 h. The plates were washed 3 times, TMB development fluid (EL0009, Huzhou Ying Chuang Biotechnology) was added at 100 μL/well and 50 μL 1N hydrochloric acid was added after incubation at 37° C. for 10 min to stop the development reaction. OD450 nm values were read with ELISA plate reader and the curve was fitted with GraphPad Prism6, and EC₅₀ values were calculated.

human BDCA2 [2] = target: T2, human BDCA2 (human, UniProt Q8WTT0 1-213); assay: FACS on CHOK1-hBDCA2 cells; EC50 table under the plot, unit from the x axis (nM) [continued) d.]
T2 construct: whole, on cells; also called hBDCA2; Blood dendritic cell antigen 2
T2 sequence (looked up): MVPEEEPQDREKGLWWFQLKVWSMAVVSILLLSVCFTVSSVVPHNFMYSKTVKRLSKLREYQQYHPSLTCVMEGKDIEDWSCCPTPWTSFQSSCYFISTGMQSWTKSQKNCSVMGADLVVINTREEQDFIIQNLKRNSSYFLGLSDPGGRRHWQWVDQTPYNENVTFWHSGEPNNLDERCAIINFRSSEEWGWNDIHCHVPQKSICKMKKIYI
Procedure: (§1) The cells were recovered and resuspended to 2×10⁶/mL with FACS buffer (PBS+2% FBS). The cells were added to 3799 cell plates (Corning) at 100 μL/well, and the supernatant was discarded after centrifugation at 300 g. The antibodies were serially diluted with FACS buffer (Id.), the diluted antibodies were added to centrifuged cells and the cells were resuspended. The cells were incubated at 4° C. for 1 h. The incubated cells were then centrifuged at […] for 5 min and washed twice with FACS buffer. 100 μL Donkey anti-Mouse IgG (H+L) Highly Cross-Adsorbed Secondary Antibody-Alexa Fluor 488 (Invitrogen, A21202; 1:1000) secondary antibody was added to the cells, which were washed twice with FACS buffer after incubation at 4° C. for 1 h, resuspended with PBS, analyzed with FACS (BD FACS CantoTM II) instrument. The curve was fitted with GraphPad Prism6, and EC₅₀ values were calculated.

cynomolgus BDCA2 [3] = target: T3, cynomolgus BDCA2 (cynomolgus monkey, UniProt A0A2K5UWP4 1-212); assay: FACS on 293F-cynoBDCA2 cells; EC50 table under the plot, unit from the x axis (nM) [continued) d.]
T3 construct: whole, on cells; also called Cyno BDCA2; cynoBDCA2
T3 sequence: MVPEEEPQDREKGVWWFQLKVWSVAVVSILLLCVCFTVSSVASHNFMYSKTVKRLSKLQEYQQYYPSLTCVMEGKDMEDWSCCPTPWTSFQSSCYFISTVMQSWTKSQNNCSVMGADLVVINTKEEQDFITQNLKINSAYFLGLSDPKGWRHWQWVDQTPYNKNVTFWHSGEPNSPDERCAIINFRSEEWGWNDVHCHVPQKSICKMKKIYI
Procedure: as §1

human FcγRIIA (H167) [4] = target: T4, human FcγRIIA (H167) (human, UniProt P12318 36-218, limits assumed, biotinylated (site not stated)); assay: SPR, FcγRIIA (H167); against the wild-type Fc antibody Hu033-03
T4 construct: also called Fey RIIA (H167)
T4 sequence (looked up): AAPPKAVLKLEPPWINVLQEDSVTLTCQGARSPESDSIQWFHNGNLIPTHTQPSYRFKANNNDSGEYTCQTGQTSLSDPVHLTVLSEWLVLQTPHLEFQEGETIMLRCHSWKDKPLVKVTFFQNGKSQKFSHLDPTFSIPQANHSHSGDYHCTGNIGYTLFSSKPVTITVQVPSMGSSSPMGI
Procedure: (§2) Antibody kinetics or affinity parameters were measured using BIAcore 8K and freshly fixed biotinylated human Fe γ RIIA(R167)/Fc γ RIIA (H167) SA chips. The experiment was run at 25° C. with a running buffer of 1×HBS-EP+(10 mM HEPES pH 7.4, 150 mM NaCl, 3 mM EDTA, 0.05% Surfactant P20). […] The binding and dissociation times of the antibody were 60 and 90 seconds, respectively. Two zero concentration samples are used to remove background signals. The sample was injected in a multi cycle manner, the analyte can be fully dissociated from the chip surface at the end of each cycle, and no regeneration step was applied. Data analysis was perform using Biacore Insight Evaluation Software (Version 2.0.15.12933). After deducting the reference channel (flow cell 1) and two zero concentration signals, affinity analysis was performed using a 1:1 binding model or steady-state model for curve fitting and calculation of kinetic parameters.

human FcγRIIA (R167) [5] = target: T5, human FcγRIIA (R167) (human, UniProt P12318 36-218, limits assumed, biotinylated (site not stated)); assay: SPR, FcγRIIA (R167); against the wild-type Fc antibody Hu033-03
T5 construct: also called Fe γ RIIA(R167); Fcγ RIJA (R167)
T5 sequence (looked up): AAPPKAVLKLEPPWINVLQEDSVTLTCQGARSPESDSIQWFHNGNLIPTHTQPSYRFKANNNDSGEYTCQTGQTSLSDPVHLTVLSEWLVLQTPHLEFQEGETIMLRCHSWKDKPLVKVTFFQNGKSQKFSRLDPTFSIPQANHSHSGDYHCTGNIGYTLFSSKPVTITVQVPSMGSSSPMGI
Procedure: as §2

human FcγRIIA (H167) [6] = target: T4, human FcγRIIA (H167); assay: SPR (BIAcore 8K), biotinylated FcγRIIA (H167) on SA chip, antibody as analyte, 1:1 binding
Procedure: as §2

human FcγRIIA (R167) [7] = target: T5, human FcγRIIA (R167); assay: SPR (BIAcore 8K), biotinylated FcγRIIA (R167) on SA chip, antibody as analyte, 1:1 binding
Procedure: as §2

human BDCA2 [8] = target: T2, human BDCA2; assay: FACS on CHOK1-hBDCA2 cells; EC50 table under the plot, unit from the x axis (nM)
Procedure: as §1

cynomolgus BDCA2 [9] = target: T3, cynomolgus BDCA2; assay: FACS on 293F-cynoBDCA2 cells; EC50 table under the plot, unit from the x axis (nM)
Procedure: as §1

human BDCA2 [10] = target: T2, human BDCA2; assay: cell-based or functional assay

EC50 [1]: < 0.3 nM
EC50 (human BDCA2 [2]): 0.773 nM
EC50 (cynomolgus BDCA2 [3]): 2.49 nM
B1: mAb026 (antibody, V domains shown)
VH: DVQLQESGPGLVKPSQSLSLTCSVTGYSITSAYYWNWIRQFPGHKLEWMGYISYDGSNNYNPSLKNRISITRDTSKNQFFLKLNSVTTEDTATYHCARGVDYPNAIDWWGQGTSLTVSS
VL: DIVLTQSPTSLTVSLGQRATISCRASESVSIHGTHLMHWYQQKPGQPPKLLIYVASYLESGVPARFSGSGSETDFSLNIHPVEEEDAATYFCQQSFEDPWTFGGGTKLEIK
notes: Mouse hybridoma antibody

EC50 [1]: < 0.3 nM
EC50 (human BDCA2 [2]): 0.251 nM
EC50 (cynomolgus BDCA2 [3]): 0.28 nM
B2: mAb028 (antibody, V domains shown)
VH: DVQLQESGPGLVKPSQSLSLTCSVTGYSISSGYYWNWIRQFPGNKLECMGYISYDGSNYYNPSLKNRISITRDTSKNQFFLSLNSVTTEDTATYFCVRGGDYDDGGFAYWGQGTLVTVSA
VL: DIQMTQSPASLSASVGETVTITCRASGNIHNYLAWYQQKQGKSPQLLVYNAKTLADGVPSRFSGSGSETQYSLKINSLQPEDFGNYFCQHFWIIPYTFGGGTKLEIK
notes: Mouse hybridoma antibody

EC50 [1]: < 0.3 nM
EC50 (human BDCA2 [2]): 0.225 nM
EC50 (cynomolgus BDCA2 [3]): 0.359 nM
B3: mAb032 (antibody, V domains shown)
VH: DVQLQESGPGLVKPSQSLSLTCSVTGYSITSGYYWNWIRQFPGNKLECMGYISYDGSNYYNPSLKNRISITRDTSKNQFFLSLNSVTTEDTATYFCVRGGDYDDGGFAYWGQGTLVTVSA
VL: DIQMTQSPASLSASVGETVTITCRASGNIHNYLAWYQQKQGKSPQLLVYNAKTLADGVPSRFSGSGSETQYSLKINSLQPEDFGNYFCQHFWIIPYTFGGGTKLEIK
notes: Mouse hybridoma antibody

Multiple of affinity (human FcγRIIA (H167) [4]): 2.3 fold
Multiple of affinity (human FcγRIIA (R167) [5]): 4 fold
Kd (human FcγRIIA (H167) [6]): 490 nM
koff (human FcγRIIA (H167) [6]): 0.23 s⁻¹
kon (human FcγRIIA (H167) [6]): 470000 M⁻¹ s⁻¹
Kd (human FcγRIIA (R167) [7]): 310 nM
koff (human FcγRIIA (R167) [7]): 0.232 s⁻¹
kon (human FcγRIIA (R167) [7]): 750000 M⁻¹ s⁻¹
B4: Hu033-03-T1 (antibody, human IgG1, kappa)
heavy: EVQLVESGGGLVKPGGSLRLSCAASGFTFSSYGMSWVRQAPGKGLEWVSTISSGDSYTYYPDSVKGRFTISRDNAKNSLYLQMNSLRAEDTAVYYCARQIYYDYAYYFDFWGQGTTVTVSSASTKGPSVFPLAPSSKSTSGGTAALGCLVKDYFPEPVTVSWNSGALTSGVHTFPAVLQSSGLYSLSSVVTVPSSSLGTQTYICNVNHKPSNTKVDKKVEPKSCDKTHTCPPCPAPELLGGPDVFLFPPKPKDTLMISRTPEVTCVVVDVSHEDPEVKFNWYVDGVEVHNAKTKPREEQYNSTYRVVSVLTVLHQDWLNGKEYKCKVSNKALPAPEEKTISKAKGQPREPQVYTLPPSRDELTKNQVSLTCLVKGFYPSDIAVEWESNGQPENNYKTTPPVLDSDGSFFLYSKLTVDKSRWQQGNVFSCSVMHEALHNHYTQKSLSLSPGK
light: DIVLTQSPASLAVSPGQRATITCRASESVSFRTSHLMHWYQQKPGQPPKLLIYGASNLESGVPARFSGSGSETDFTLTINPVEAEDTANYFCQQSIEDPPTFGGGTKVEIKRTVAAPSVFIFPPSDEQLKSGTASVVCLLNNFYPREAKVQWKVDNALQSGNSQESVTEQDSKDSTYSLSSTLTLSKADYEKHKVYACEVTHQGLSSPVTKSFNRGEC
notes: Fc-mutated Hu033-03 (IgG1)

Multiple of affinity (human FcγRIIA (H167) [4]): 10 fold
Multiple of affinity (human FcγRIIA (R167) [5]): 13.7 fold
Kd (human FcγRIIA (H167) [6]): 103 nM
koff (human FcγRIIA (H167) [6]): 0.0585 s⁻¹
kon (human FcγRIIA (H167) [6]): 570000 M⁻¹ s⁻¹
Kd (human FcγRIIA (R167) [7]): 45.8 nM
koff (human FcγRIIA (R167) [7]): 0.0899 s⁻¹
kon (human FcγRIIA (R167) [7]): 1.96e+06 M⁻¹ s⁻¹
B5: Hu033-03-T2 (antibody, human IgG1, kappa)
heavy: EVQLVESGGGLVKPGGSLRLSCAASGFTFSSYGMSWVRQAPGKGLEWVSTISSGDSYTYYPDSVKGRFTISRDNAKNSLYLQMNSLRAEDTAVYYCARQIYYDYAYYFDFWGQGTTVTVSSASTKGPSVFPLAPSSKSTSGGTAALGCLVKDYFPEPVTVSWNSGALTSGVHTFPAVLQSSGLYSLSSVVTVPSSSLGTQTYICNVNHKPSNTKVDKKVEPKSCDKTHTCPPCPAPELLAGPDVFLFPPKPKDTLMISRTPEVTCVVVDVSHEDPEVKFNWYVDGVEVHNAKTKPREEQYNSTYRVVSVLTVLHQDWLNGKEYKCKVSNKALPAPEEKTISKAKGQPREPQVYTLPPSRDELTKNQVSLTCLVKGFYPSDIAVEWESNGQPENNYKTTPPVLDSDGSFFLYSKLTVDKSRWQQGNVFSCSVMHEALHNHYTQKSLSLSPGK
light: DIVLTQSPASLAVSPGQRATITCRASESVSFRTSHLMHWYQQKPGQPPKLLIYGASNLESGVPARFSGSGSETDFTLTINPVEAEDTANYFCQQSIEDPPTFGGGTKVEIKRTVAAPSVFIFPPSDEQLKSGTASVVCLLNNFYPREAKVQWKVDNALQSGNSQESVTEQDSKDSTYSLSSTLTLSKADYEKHKVYACEVTHQGLSSPVTKSFNRGEC
notes: Fc-mutated Hu033-03 (IgG1)

EC50 (human BDCA2 [8]): 1.37 nM
EC50 (cynomolgus BDCA2 [9]): 6.08 nM
B6: mAb001 (antibody, V domains shown)
VH: QIQLVQSGPELKKPGETVKISCKASGYTFTDFSMHWVKQAPGKGLKWMGWINTETGEPTYADDFKGRFAFSLETSASTAFLQINNLKNDDTTTYFCSRGGDGHPYWYFAVWGAGTTVTVSS
VL: DIVLTQSPASLAVSLGQRATISCRASQSVSTSSYSYMHWYQQKPGQPPKLLIKYASILESGVPARFSGSGSGTDFTLNIHPVEEEDTATYYCQHSWEIPFTFGSGTKLEIK
notes: Mouse hybridoma antibody

EC50 (human BDCA2 [8]): 1.89 nM
EC50 (cynomolgus BDCA2 [9]): 7.05 nM
B7: mAb002 (antibody, V domains shown)
VH: QIQLVQSGPELKKPGETVKISCRASGYSFTDYSMHWVKQAPGKGLKWVGWINTETGEPTYADDFKGRFALSLETSATSAYLQINNLKNEDTATYFCARGGDGFPYWYFNVWGAGTTVTVSS
VL: DIVLTQSPTSLAVSLGQRTNISCRASQSVSTSSNSYIHWYQQKPGQPPKLLIKYASNLDSGVPARFSGSGSGTDFTLNIHPVEEEDTSTYYCQHSWEIPFTFGSGTKLEIK
notes: Mouse hybridoma antibody

IC50 for inhibiting cytokine IFNα release, CpG-A stimulated human PBMC (human BDCA2 [10]): 0.0867 nM
EC50 (human BDCA2 [8]): 1.83 nM
EC50 (cynomolgus BDCA2 [9]): 2.11 nM
B8: mAb005 (antibody, V domains shown)
VH: QVQLKQSGPGLVQPSQSLSITCTVSGFSLTNYGVHWVRQSPGKGLEWLGVIWSGESTDYDAAFISRLSISKDNSKSQVFFKMNSLQADDSAIYYCARRRSHYYGYVMDYWGQGTSVTVSS
VL: DIVLTQSPASLAVSLGQRATISCKASQSIDYDGIGYLNWYQHKPGQPPKLLIYAASNLESGIPARFSGSGSGTDFTLNIHPVEEEDAATYYCQQSNEDPPTFGSGTKLEIK
notes: Mouse hybridoma antibody
